Experiments:
[1] = target: cynomolgus formyl peptide receptor 1 (cynomolgus monkey)
[2] = target: cynomolgus formyl peptide receptor 1 (cynomolgus monkey); assay: FMAT competition binding on cells

IC50, inhibition of fMLFF-induced calcium release, cynomolgus FPR1 HEK cells [1] [nM]	IC50 [2] [nM]	Binder
12	20	Fpro0165 IgG (antibody, V domains shown) VH: EVQLVESGGGLVKPGGSLRLSCAASGFTFSNAWMNWVRQAPGKGLEWVGRVKSKTDGGAADYAAPVKGRFTISRDDSKNTLYLQMNSLKTEDTAVYYCTTDQLGYDFWNGYYTDTLYYYFGMDVWGPGTTVTVSS VL: DIVMTQSPLSLPVTPGEPASISCRSSQPLLAMDGHNYLDWYLQKPGQSPQVLIYQSKWRASGVPDRFSGSGSGTDFTLKISRVEAEDVGVYYCMQALQTPLTFGGGTKVEIK
	33	Fpro0025 IgG (antibody, V domains shown) VH: EVQLVESGGGLVKPGGSLRLSCAASGFTFSNAWMNWVRQAPGKGLEWVGRIKSKTDGGAADYAAPVKGRFTISRDDSKNTLYLQMNSLKTEDTAVYYCTTDQLGYDFWSGYYTDTLYYYFGMDVWGPGTTVTVSS VL: DIVMTQSPLSLPVTPGEPASISCRSSQPLLAMDGHNYLDWYLQKPGQSPQVLIYLGSNRASGVPDRFSGSGSGTDFTLKISRVEAEDVGVYYCMQALQTPLTFGGGTKVEIK
	13	Fpro0067 IgG (antibody, V domains shown) VH: EVQLVESGGGLVKPGGSLRLSCAASGFTFSNAWMNWVRQAPGKGLEWVGRIKSKTDGGAADYAAPVKGRFTISRDDSKNTLYLQMNSLKTEDTAVYYCTTDQLGYDFWSGYYTDTLYYYFGMDVWGPGTTVTVSS VL: DIVMTQSPLSLPVTPGEPASISCRSSQPLLAMDGHNYLDWYLQKPGQSPQVLIYQSKWRASGVPDRFSGSGSGTDFTLKISRVEAEDVGVYYCMQALQTPLTFGGGTKVEIK
	13	Fpro0084 IgG (antibody, V domains shown) VH: EVQLVESGGGLVKPGGSLRLSCAASGFTFSNAWMNWVRQAPGKGLEWVGRIKSKTDGGAADYAAPVKGRFTISRDDSKNTLYLQMNSLKTEDTAVYYCTTDQLGYDFWSGYYTDTLYYYFGMDVWGPGTTVTVSS VL: DIVMTQSPLSLPVTPGEPASISCRSSQQLQAYDGHNYLDWYLQKPGQSPQVLIYLGSNRASGVPDRFSGSGSGTDFTLKISRVEAEDVGVYYCMQALQTPLTFGGGTKVEIK

Source: paper PMC4622665
